Source: patent US20050113284A1, “Drug for regenerating tissue and vessel and method therefor” (priority 2001, published 2005)

T1: MERMUC self-association (Homo sapiens, UniProt Q8N307)
T1 construct: human MERMUC (full-length; full)/β-galΔα; β-galΔω (E. coli β-galactosidase residues 1-789); β-galΔα (E. coli β-galactosidase lacking residues 12-42); expressed in transfected cells; host or cells: CHO cells (A5); CHO-K1 cells (A6); pcDNA3 vectors
T1 sequence (Q8N307 with tags, fused parts or gaps R136E/DEL182-352/L354P/T442I/D493H limits assumed): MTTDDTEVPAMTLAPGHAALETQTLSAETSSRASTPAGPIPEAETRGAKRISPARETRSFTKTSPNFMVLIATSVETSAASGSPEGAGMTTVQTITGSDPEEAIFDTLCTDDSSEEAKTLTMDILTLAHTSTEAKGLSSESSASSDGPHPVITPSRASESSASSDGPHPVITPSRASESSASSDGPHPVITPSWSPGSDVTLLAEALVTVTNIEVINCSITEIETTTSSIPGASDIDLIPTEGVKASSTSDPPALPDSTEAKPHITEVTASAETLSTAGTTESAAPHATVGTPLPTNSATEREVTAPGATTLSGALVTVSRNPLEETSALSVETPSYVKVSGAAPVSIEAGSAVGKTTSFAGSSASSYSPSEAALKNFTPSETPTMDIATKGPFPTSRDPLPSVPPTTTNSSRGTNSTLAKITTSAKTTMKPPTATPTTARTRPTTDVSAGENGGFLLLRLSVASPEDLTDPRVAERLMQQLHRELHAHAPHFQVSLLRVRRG

T2: MERMUC self-association (Homo sapiens, UniProt Q8N307, D493H/DEL182-352/L354P/R136E/T442I)
T2 construct: human MERMUC (full-length; full)/β-galΔα; β-galΔω (E. coli β-galactosidase residues 1-789); β-galΔα (E. coli β-galactosidase lacking residues 12-42); expressed in transfected cells; host or cells: CHO cells (A5); CHO-K1 cells (A6); pcDNA3 vectors
T2 sequence (Q8N307 with tags, fused parts or gaps R136E/DEL182-352/L354P/T442I/D493H limits assumed): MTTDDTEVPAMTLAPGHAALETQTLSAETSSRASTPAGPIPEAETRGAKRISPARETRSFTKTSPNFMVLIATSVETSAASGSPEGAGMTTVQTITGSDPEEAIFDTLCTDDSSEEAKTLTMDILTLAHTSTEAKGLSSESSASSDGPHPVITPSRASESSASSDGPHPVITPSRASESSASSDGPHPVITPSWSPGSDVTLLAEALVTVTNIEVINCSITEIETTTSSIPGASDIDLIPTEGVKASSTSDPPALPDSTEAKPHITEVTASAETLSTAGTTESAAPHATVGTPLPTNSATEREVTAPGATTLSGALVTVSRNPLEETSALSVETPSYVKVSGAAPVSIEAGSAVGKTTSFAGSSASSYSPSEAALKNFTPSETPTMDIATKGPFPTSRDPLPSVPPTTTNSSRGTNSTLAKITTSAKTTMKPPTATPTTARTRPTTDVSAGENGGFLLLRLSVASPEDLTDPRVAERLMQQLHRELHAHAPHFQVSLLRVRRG


Columns and labels:
[1] = biological target: T3, HGF receptor c-Met β chain (Homo sapiens, UniProt P08581); assay: Yeast two-hybrid binding of MERMUC bait proteins to c-Met prey (C-terminal 91 amino acids); conditions: prey clone No. 3-309 (C-terminal 91 amino acids of human c-Met)
T3 construct: expressed in transfected cells; host or cells: yeast AH109 strain (library prey plasmid, human kidney cDNA library, CLONTECH)
T3 sequence (P08581 1300-1390): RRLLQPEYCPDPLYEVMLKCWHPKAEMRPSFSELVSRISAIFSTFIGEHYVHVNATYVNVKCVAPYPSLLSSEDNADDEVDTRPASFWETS
Method: The present examination was performed using the previously reported yeast two-hybrid system (references are described above) according to conventional method and the experimental protocols provided with the reagents. […]
The binding ability of MERMUC bait protein derived from each of the bait vectors to the HGF receptor c-Met β chain was analyzed by the yeast two-hybrid system described above. […]
Each of the bait vectors was cointroduced into yeast AH109 strain with human HGF receptor c-Met prey vector (comprising DNA encoding the C-terminal 91 amino acids of the c-Met; Example 1). The binding ability of each of the bait proteins (randomly selected 10 amino acids of the human MERMUC C-terminal region) to the C-terminal region of human c-Met β chain was analyzed by the yeast two-hybrid system similar to the aforementioned Example.

MERMUC self-association [2] = biological target: T1, MERMUC self-association; assay: Suppression of MERMUC self-association by MERMUC cytoplasmic region peptides (β-gal activity, CHO-K1 cells); format: cell-based; conditions: compared among del-1 to del-4; FIG. 16
Text: (§1) To validate this prediction and at the same time synthesize a MERMUCMERMUC peptide that is able to suppress MERMUC self-association through the binding to the MERMUC self-association region, the following 4 types of peptides each corresponding to a part of MERMUC cytoplasmic region were synthesized by the method described later: • del-1: amino acid sequence from amino acids 244 to 345 of SEQ ID NO: 10; • del-2: amino acid sequence from amino acids 244 to 380 of SEQ ID NO: 10; • del-3: amino acid sequence from amino acids 244 to 415 of SEQ ID NO: 10; and • del-4: amino acid sequence from amino acids 244 to 450 of SEQ ID NO: 10.
(§2) Each of the cDNA obtained by PCR was digested with HindIII and XhoI and inserted into the HindIII/XhoI site of pcDNA3 vector to obtain an expression vector expressing each of the human MERMUC cytoplasmic region fragments (del-1 to del-4). […]
(§3) Intracellular β-Galactosidase activity of the recombinant cells was measured using Gal-Screen System (Applied Biosystems) according to the accompanying protocol 48 hr after plasmid transfection. […]

MERMUC self-association [3] = biological target: T2, MERMUC self-association; assay: as above; format: cell-based; conditions: various concentrations of del-4; FIG. 18
Text: as §1, §2, §3

[4] = system: binding of MERMUC and HGF receptor c-Met; assay: Suppression of MERMUC binding to HGF receptor c-Met by MERMUC cytoplasmic region peptides (β-gal activity, CHO-K1 cells); format: cell-based, human
MAP kinase (Erk) = assay: Recovery of HGF-induced MAP kinase activation in MERMUC/293 cells (Western blotting); format: cell-based, human; conditions: MERMUC expressing MERMUC/293 cells transfected with del-4 expression vector vs mock
Method: The del-4 protein expression vector produced above was added to Tet-Off/MERMUC expressing recombinant cells (MERMUC/293 cells) (produced in Example 2) and cultured at 37° C. for 48 hr for transfection using GeneJammer Transfection Reagent (STRATAGENE) according to the accompanying protocol.
Cells were similarly transfected with pcDNA3 vector [mock] that lack the cDNA encoding del-4 instead of the del-4 expression vector as a control.
The cells were stimulated with human recombinant HGF (CALBIOCHEM), and cell lysate was prepared according to conventional method immediately after the stimulation to evaluate the activation level of MAP kinase (also referred to as Erk).
The cell lysate was separated by SDS-PAGE, and then subjected to Western blotting according to conventional method using anti-phosphorylated MAP kinase polyclonal antibody (Phospho-p44/42 MAP kinase (Thr202/Thr204) antibody; Cell Signaling Technology) to determine the MAP kinase activation level based on the obtained signal intensity.

Molecule	binding activity to the HGF receptor c-Met β chain [1]	suppression of MERMUC self-association (MERMUC self-association [2])	suppression of MERMUC self-association, dose dependence (MERMUC self-association [3])	decrease in the binding of MERMUC and HGF receptor c-Met ([4]; compared among del-1 to del-4, FIG. 17)	suppression of the binding of MERMUC and HGF receptor c-Met, dose dependence ([4]; various concentrations of del-4, FIG. 18)	phosphorylated MAP kinase level after HGF stimulation (MAP kinase (Erk))
C260AC53: MERMUC bait protein, 53 amino acids deleted from the C-terminus of C260; amino acids 244-450 of SEQ ID NO: 10 (protein, listed as Homo sapiens) VKASSTSDPPALPDSTEAKPHITEVTASAETLSTAGTTESAAPHATVGTPLPTNSATEREVTAPGATTLSGALVTVSRNPLEETSALSVETPSYVKVSGAAPVSIEAGSAVGKTTSFAGSSASSYSPSEAALKNFTPSETPTMDIATKGPFPTSRDPLPSVPPTTTNSSRGTNSTLAKITTSAKTTMKPPTATPTTARTRPTTDVSA	completely lost the binding activity	–	–	–	–	–
del-4: MERMUC cytoplasmic region peptide, amino acids 244 to 450 of SEQ ID NO: 10 (protein, listed as Homo sapiens) VKASSTSDPPALPDSTEAKPHITEVTASAETLSTAGTTESAAPHATVGTPLPTNSATEREVTAPGATTLSGALVTVSRNPLEETSALSVETPSYVKVSGAAPVSIEAGSAVGKTTSFAGSSASSYSPSEAALKNFTPSETPTMDIATKGPFPTSRDPLPSVPPTTTNSSRGTNSTLAKITTSAKTTMKPPTATPTTARTRPTTDVSA	–	strongest suppression	increased in del-4 dosage-dependent manner	greatest decrease	increased in del-4 dosage-dependent manner	a significant level of phosphorylated MAP kinase was observed
C260: MERMUC bait protein, C-terminal 260 amino acids of cytoplasmic region; amino acids 244-503 of SEQ ID NO: 10 (protein, listed as Homo sapiens) VKASSTSDPPALPDSTEAKPHITEVTASAETLSTAGTTESAAPHATVGTPLPTNSATEREVTAPGATTLSGALVTVSRNPLEETSALSVETPSYVKVSGAAPVSIEAGSAVGKTTSFAGSSASSYSPSEAALKNFTPSETPTMDIATKGPFPTSRDPLPSVPPTTTNSSRGTNSTLAKITTSAKTTMKPPTATPTTARTRPTTDVSAGENGGFLLLRLSVASPEDLTDPRVAERLMQQLHRELHAHAPHFQVSLLRVRRG	possessed the binding activity	–	–	–	–	–
